Measured values as given in article doi:10.1101/2021.07.21.453268 (bioRxiv, 2021).

Target: T1, 3HA-Atg13 (S. cerevisiae, UniProt Q06628 1-738, hyper-phosphorylated (sites not given))
T1 sequence (looked up): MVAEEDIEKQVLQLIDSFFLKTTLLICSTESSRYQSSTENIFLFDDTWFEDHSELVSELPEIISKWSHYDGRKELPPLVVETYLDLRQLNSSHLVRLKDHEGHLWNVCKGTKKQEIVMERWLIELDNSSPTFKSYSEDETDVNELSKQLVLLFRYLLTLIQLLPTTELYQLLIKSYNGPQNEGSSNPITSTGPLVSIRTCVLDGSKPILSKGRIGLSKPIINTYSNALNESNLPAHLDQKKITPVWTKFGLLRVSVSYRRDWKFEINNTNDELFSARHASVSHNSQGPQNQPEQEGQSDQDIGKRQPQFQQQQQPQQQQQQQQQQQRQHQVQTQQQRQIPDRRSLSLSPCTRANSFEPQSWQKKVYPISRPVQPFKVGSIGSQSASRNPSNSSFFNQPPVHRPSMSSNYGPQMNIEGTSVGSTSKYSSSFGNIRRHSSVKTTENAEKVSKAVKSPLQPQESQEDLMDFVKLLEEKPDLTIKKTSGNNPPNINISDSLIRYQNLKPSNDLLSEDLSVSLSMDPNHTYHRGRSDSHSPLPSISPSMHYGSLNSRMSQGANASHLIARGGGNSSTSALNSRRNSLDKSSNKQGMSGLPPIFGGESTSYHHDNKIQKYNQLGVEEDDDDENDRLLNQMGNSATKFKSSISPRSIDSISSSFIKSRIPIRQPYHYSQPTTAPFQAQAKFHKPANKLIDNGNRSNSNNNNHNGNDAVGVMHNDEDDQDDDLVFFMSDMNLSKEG
Assay: pull-down

binding result: binds
B1: 6His-3FLAG-Cdc14m (enzyme, S. cerevisiae, UniProt Q00684 1-551, looked up)
chain: MRRSVYLDNTIEFLRGRVYLGAYDYTPEDTDELVFFTVEDAIFYNSFHLDFGPMNIGHLYRFAVIFHEILNDPENANKAVVFYSSASTRQRANAACMLCCYMILVQAWTPHQVLQPLAQVDPPFMPFRDAGYSNADFEITIQDVVYGVWRAKEKGLIDLHSFNLESYEKYEHVEFGDFNVLTPDFIAFASPQEDHPKGYLATKSSHLNQPFKSVLNFFANNNVQLVVRLNSHLYNKKHFEDIGIQHLDLIFEDGTCPDLSIVKNFVGAAETIIKRGGKIAVHSKAGLGRTGCLIGAHLIYTYGFTANECIGFLRFIRPGMVVGPQQHWLYLHQNDFREWKYTTRISLKPSEAIGGLYPLISLEEYRLQKKKLKDDKRVAQNNIEGELRDLTMTPPSNGHGALSARNSSQPSTANNGSNSFKSSAVPQTSPGQPRKGQNGSNTIEDINNNRNPTSHANRKVVIESNNSDDESMQDTNGTSNHYPKVSRKKNDISSASSSRMEDNEPSATNINNAADDTILRQLLPKNRRVTSGRRTTSAAGGIRKISGSIKK
